Among the data in article PMC8101287 (2020) are Kd values, retold here.

For test [1], the target named is T1, HLA‐DR1 (HLA‐DRA1*01:01/HLA‐DRB*01:01) complexed with the HA_(306‐318) peptide, refolded from E. coli (human | ). In words: SPR. For orientation: In SPR one partner is held on a chip, and binding of the other changes the refractive index at the surface.
For test [2], the target named is T1, HLA‐DR1 (HLA‐DRA1*01:01/HLA‐DRB*01:01) …. In words: SPR. This is another data set of the same source.

In general, Kd refers to the equilibrium constant for the complex coming apart. The low end stands for a tighter complex, the high end for a looser complex.

Several values for one entry are separate records, joined by “and”; a condition that tells them apart may be missing. Identical values can stand only once. Like-named read-outs stand apart in the source and are kept apart here.

B1: LAG‐3:Fc fusion protein (four extracellular domains of LAG‐3 and the Fc domain of IgG) (Fc fusion)
chain: LQPGAEVPVVWAQEGAPAQLPCSPTIPLQDLSLLRRAGVTWQHQPDSGPPAAAPGHPLAPGPHPAAPSSWGPRPRRYTVLSVGPGGLRSGRLPLQPRVQLDERGRQRGDFSLWLRPARRADAGEYRAAVHLRDRALSCRLRLRLGQASMTASPPGSLRASDWVILNCSFSRPDRPASVHWFRNRGQGRVPVRESPHHHLAESFLFLPQVSPMDSGPWGCILTYRDGFNVSIMYNLTVLGLEPPTPLTVYAGAGSRVGLPCRLPAGVGTRSFLTAKWTPPGGGPDLLVTGDNGDFTLRLEDVSQAQAGTYTCHIHLQEQQLNATVTLAIITVTPKSFGSPGSLGKLLCEVTPVSGQERFVWSSLDTPSQRSFSGPWLEAQEAQLLSQPWQCQLYQGERLLGAAVYFTELSSPGAQRSGRAPGALPAGHL
As to B1, the Kd in test [1] was 7.3 µM; in test [2], 3 µM and 1 µM.
